Assay results from a protein production outcome set (Wang et al. 2014).

Test: label from the status in PepcDB records

Sequence | protein production
MTSRPSSDQTWQPIDGRVALIAPASAIATDVLEATLRQLEVHGVDYHLGRHVEARYRYLAGTVEQRLEDLHNAFDMPDITAVWCLRGGYGCGQLLPGLDWGRLQAASPRPLIGFSDISVLLSAFHRHGLPAIHGPVATGLGLSPLSAPREQQERLASLASVSRLLAGIDHELPVQHLGGHKQRVEGALIGGNLTALACMAGTLGGLHAPAGSILVLEDVGEPYYRLERSLWQLLESIDARQLGAICLGSFTDCPRKEVAHSLERIFGEYAAAIEVPLYHHLPSGHGAQNRAWPYGKTAVLEGNRLRW | not failed
MTSTHQAAHRTGSTMRLRILIATDTYPPDVNGASYFTYRLATGLAERGHDVHVVCASASGPPRVEVQDGVVLHRMRSVPVLVHPTMRTALPLGLTGHIARIVDRLAPHVVHVQSHFTISRTALRCGRMAGVPVVLTNHFMPDNLFAHAHIPPRLHGVVGSLAWQDMIRVARTADYVTTPTQRAAELLASKGFTRTVEAVSCGIDLDRFRPRPQDRAQARAHFGLPDRETMVFVGRLDEEKRIDESIRALPVLLRHRDVQLVLAGTGQRREELERLARSLGVAERVHFLGFVPDDDLPLVYVAADLFVIGSVAELQSIATLEAMSTGLPVVAADALALPHLVRPGRNGYLYPPGDVAQLAQRLLDVLESPDRRTAMGRASRDIAQTHDHHRSLDRFEQIYTEVRPRSWTLSRSASPAARQRDTTVAA | failed
MTSYSLEDFNTPLECAPLARWERKRKEQLDRTSKTPNKTPQGDRFIPNRNVMNIEVSRLNLQQEYYGKENNQNSSSLLDSHMDNVEWNSGKDSPACHHYQSALASSLLQNSYHEEHPQSKILTFKQKAPKPQEGYVNSLKVLYSQNMPQISEQRKRMIRHIPQTPDRILDAPELVDDYYLNLLDWNHENILAVALGSSVYLWNASTGDIQELCNVSQDEMICSVSWVPDGHHLAVGTSMKDVQLWDTQRGRQVRKMHSHSSRVGCLAWNGPILSSGSRDTTIHHHDVRIAQHHVETLRGHEQEVCGLKWNVDGSQLASGGNDNLLMIWDHFHSNQPKYRLDHHHAAVKAIAWCPWQTHLLASGGGTADRTIKFWNTTTGACLQSIDTKSQVCALIWNRHDKEIVSSHGFSQNQLIVWKYPSMVKMAELTGHTSRVLHLSLSPDGQTVVSGAGDETLRFWRVFEASESKLKSSNKTLGHSQKSIMRTCNIR | not failed
MTTDIDLEQGGAFGYHRRSLDGSDVSVYYSDGEDVMSCYSYFYSTTGGSYEYEGDQSRKVSSVMSPSSSEIDDDDATAPPEKDCRICHLGVETSGGGAIELGCSCKDDLAVAHRQCAETWFKIKGDKTCEICQSVARNVGGANEMVGSTMEERELRNGEETAAGEGGGATVVENRWQPQRVVNLVLACMVFGFFISWIFHFHVSSSS | failed
MTTDKQTSINLALSTINGKWKLSLMDELFQGTKRNGELMRALDGITQRVLTDRLREMEKDGLVHRESFNELPPRVEYTLTPEGYALYDALSSLCHWGETFAQKKARLNK | not failed
MTTENTTALLLIDFQNDYFSTYNGAKNPLVGTEAAAEQGAKLLAKFRQQGLPVVHVRHEFPTDEAPFFLPGSDGAKIHPSVAAQEGEAVVLKHQINSFRDTDLKKVLDDAGIKKLVIVGAMTHMCIDAVTRAAEDLGYECAVAHDACATLDLEFNGITVPAAQVHAAFMSALSFAYANVASADELIAGL | not failed
MTTETFLVEIGTEELPPKALRSLAESFATHFTAELDNANITHGDVSWFAAPRRLAIKVANMAKSQADRIVEKRGPAIAQAFDAEGKPTKAAEGWARGNGITVDQAERLSTDKGEWLFYRAEVKGEAVNQLLAGMVSNALAKLPIPKLMRWGDKETHFVRPVHTVTLLLGDTLIDGEILGVQSARIIRGHRFMGEAEFTIDNADQYPEILYERGKVIADYENRKSIILHDARLAAEKLGGVADLSDSLVEEVTSLVEWPVVLTAKFEEKFLEVPAEALVYTMKGDQKYFPVYDKQGALLPHFIFVSNIESSDPQQIISGNEKVVRPRLADAEFFFKTDRKQRLEDNLPRLETVLFQKNLGSLRDKTDRIQALAGFIAEKMGADVNKATRAGLLSKCDLMTNMVFEFTDTQGVMGMHYARHDGEDEEVAVALKEQYQPRFAGDALPSNPVASAVAIAEKMDTLAGIFGIGQHPKGDKDPFALRRAALGVLRIIVEQDLPLDIEELTQEAARLYGDKLTNQNVVSDVVEFMLGRFRAWYQELGYSIDTIQAVLARRPTQPADFNARVKAVTYFRTLEEAAALAEANKRVSNILAKSADVKLNDKVLASVLKAPEEVQLAANLSVLQDKLAPLFAERKYQEALVELASLRDVVNNFFDKVMVMDKDEEIRVNRLTMLHELRELFLKVADISVLQ | failed
MTTFLQRDDFAVTARVLGALFYYSPESHETAPLVQALLNDDWQAQWPLDAEALAPVAAMFKTHSEESLPQAWQRLFIGPYALPSPPWGSVWLDRESVLFGDSTLALRQWMRENGIQFEMQQNEPEDHFGSLLLLAAWLAENDRHHECEQLLAWHLFPWSSRFLDVFIDHAGHPFYQALGQLARLTLAQWQAQLIIPVAVKPLFR | not failed
MTTIAVLGNGRVGGNLATALTRAGHEVTVADRTPGAAADTARTAQIVINATPGAGSLDRLAALRDELRDKILVDVSNATNDGPDGLPADLIYPGSSLAEHLQEALPETRVVKTLNTMLFPVMTAPATLTQTPTAFLSGEDPQAKQTVRELLTDLGWHKEWIADLGGIQTARATEAAILFVPHVIGATGFTPFAISIARLEHHHHHH | not failed
MTTIHFHNVYVASRGTSVGLLEKQGPLGNRFDYTHEDNTCQQDSFEKAERYMLQEAVDATIRKSDYSIKDIEVMIGGDLINQLTSSHYFAKEFPISFLGMYAACASSSLVIGQAALWVEHQLAKTALAFTSSHVATAERQFRFPNEYGIQKKETTTCTVTGAGAVLLSRKKSKLKVASFTVGKVVDWQYNDANDMGVAMAPAAYDTLTTYFKDTNQSFQDFDLIVTGDLSKLGFAFLRDLLLQNGYCCEEKLQDCGLMIYDIVKQNVFCGGSGCACSMCVSMTKLLDLLEQQEARRIMVLATGALLSPIAIQQKESIPCIAHAIVYERS | failed
MTTLYANVYLLSTPQGRLLLDTGTVNHAPAFARLLRSFDPDAVVVTHSHIDHAGNAFLAARLGYPVLAHPLEHDRLLGHDLSMPYPAGQPGVGRLVSRLHPRPGAERLGALYPGDTVRGWEVVHLPGHTDGQIGLQRDGVLLAADAVLSHPRTGAHLPREGYNWDHAVALQTLKKVADLDLHTVLPGHGRALDMAQVRARAVRDDEPGDRAEDAA | failed
MTTNSSSNTVVVYHSGYGHTHRMAEAVAEGAEATLHAIDAEGNLSEDGWAALDAADAIIFGTPTYMGGPSWQFKKFADASSKPWFSAKWQDKVFGGFTNSASLNGDKLNTLQYLVLLAGQHGGLWVSLGIKPSNLKSSVRNDANRMGSYIAPMAQSDADAAPEEMSVGDLETARLYGARVANVARQHKSTERV | not failed
MTTPSASTRAVLEEACLSVGLDTTNAQPIRIAENAVWRLPGGVVVRVARPGQSAAAAREVQVARWLTAEGVPAVRALDLPQPVAASGHPVTFWQELPPHEIGTVTDVVVLLKQLHALPKPDLPLGELDPFVRLVERIDAAITISDDDQLWLKHRLEDLKQQWASRPKGLPECVVHGDAWVGNVARTEAGPMLLDFERASFGPPEWDLVSTAVKLTTTGAVSAEEYAAFCETYGVDVTEWEGYELLANARELRMVTYAAQHAASRPEWRREAQYRIDCLRGRAGAPPWRWKGII | failed
MTTQSQFLVNLSYGGLASQSNLRANNRVSPSSCQITRTNRSWALPVSFKVEKFQLQRGRRRRGSPCFGESEGLVKNGIGDADGIIIVDHGSRRRESNLMLEEFVKMFKEKTGYPIVEPAHMELAEPSIKDAFSLCVQQGAKRVVVSPFFLFPGRHWHTDIPSLTADAAKEFSGISYLITAPLGPHNLLLDVVNDRIQHCLSHVEGDADECLVCAGTNKCKLYNSS | failed
MTTRDRTAIFKRYREESVVAKRKRSGNDGIQTIGNQSLSGNHKELAPFLNKGSIQTDSHTVFLPPQWLDWYEELSNSVDSVTHQLAQLESLQQNHLLPGFEERSDEESQISELSRNITLLLQRSQERIRLLAPSSSEPNISSEEKLLRTNAQKYFASKLQELSLSFRRNQKEYLRKLQGQNALVEESTDENPLSTSLELEEYDPGFTQEQVMLLENSDQVASERQREIMKIASSINDLATIVKDIASLVIDQGTLLDRIDYNVEEIEVSTEGAVKELEKAKRSQKKG | failed
MTTTKDVPIDLKASGKTAADTSYSFSSDTKSVTVTGTKAALAKLKSLPVNVDVTNVDSTTTKTVDVSTSDEDGISSVSPTSVKVKITVKNDLEHHHHHH | not failed
MTTTLSPDTARQIVPPEERYAAELAFLAAYDDGPRPPAWRLTPRAVVTFVMGSDGRALRLPEGAETPEGVPRRLTVEGKFVGDRSLVERCVVTLAGERGLLLVGEPGTAKSMLSELLSAAVCGTSGLVVQGTAGTTEDQLKYGWNYALLLAQGPSRTALVPSPVLTAMARGGIARVEEVTRCLPEVQDALVSLLSERRIAVPELSGTDDALAHAAPGFNLIATANLRDKGVSEMSAALKRRFNFETVGPIPDLDAETALVRSQARASVERAGAPFKVDEAVLEALVVAFRDLREGRSTEGWEVERPSTVMSTAEAVSVAGALGLAAAYFPGDRDVLGLLPGHLLGVVRKDDPADAARLRGYWDGPVRRRAEQGSATWRTLWDLRTVLEGLEHHHHHH | failed
MTTTNEQEQSRAYILAGLFTLSLRLVVGWTYFSAFWRRLVLENKLIPDSAGYIGEKFNHFLPNSIGIRPVIEYLVSTPDMLWWAMVIFTLVEGIVGLLYMLGFFTRLMSIGVFSLATGILLGSGWLGTTCLDEWQIGILGIAAGFTIFLSGGGKYSVDHLIERKFSLKKKAAWLSWLTSGELPVSAKRFANVSVAGAIVIFTLSLYTNQEFHNGVWGPLHNKSVKPKIEISDAQIENNSLSFSVYRVEGVDVYGSFLIGISLKNADGDIVLEKKGEELADFPIGNIDNKYIARVAPGKHSLVIPLGSKATLTVDDTAIGSLPKGKYELVLTDISGITWKKEIIH | failed
MTTTPDWIMIGGDGPESYNQQSSYQRALLEATKDKMTKAISANLDLDLISNRFIVADFGCASGPNTFVAVQNIIDAVEEKYRRETGQNPADNIEFQVLFNDFSLNDFNTLFQTLPPGRRYFSAGVPGSFFERVLPKESFHIGVMSYAFHFTSKIPKGIMDRDSPLWNKDMQCTGFNPAVKKAYLDQYSIDTKILLDARAEELVPGGLMLLLGSCLRDGVKMSETPKGTVMDFIGESLSDLAKQGVTEQEKVDTFRTSIYFAEQGEIRQIIEENGKFTIEAFEDIIHAKNEFPFDPKTLAISFKAFYGAFISAHFGVEVMRKAFELVEVKAREQISRLHNSKPGMQYLIVLRKN | failed
MTVAFASDQRLENGAEQLESLRRQMALLSEKVSGGPSRSGDLVPAGPVSLPPGTVGVLSGARSLLLSMVASVTAAGGNAAIVGQPDIGLLAAVEMGADLSRLAMIPDPGTDPVEVAAVLIDGMDLVVLGLGGRRVTRARARAVVARARQKGCTLLVTDGDWQGVSTRLAARVCGYEITPALRGVPTPGLGRISGVRLQINGRGR | failed
MTVEPFRNEPIETFQTEEARRAMREALRRVREEFGRHYPLYIGGEWVDTKERMVSLNPSAPSEVVGTTAKAGKAEAEAALEAAWKAFKTWKDWPQEDRSRLLLKAAALMRRRKRELEATLVYEVGKNWVEASADVAEAIDFIEYYARAALRYRYPAVEVVPYPGEDNESFYVPLGAGVVIAPWNFPVAIFTGMIVGPVAVGNTVIAKPAEDAVVVGAKVFEIFHEAGFPPGVVNFLPGVGEEVGAYLVEHPRIRFINFTGSLEVGLKIYEAAGRLAPGQTWFKRAYVETGGKDAIIVDETADFDLAAEGVVVSAYGFQGQKCSAASRLILTQGAYEPVLERVLKRAERLSVGPAEENPDLGPVVSAEQERKVLSYIEIGKNEGQLVLGGKRLEGEGYFIAPTVFTEVPPKARIAQEEIFGPVLSVIRVKDFAEALEVANDTPYGLTGGVYSRKREHLEWARREFHVGNLYFNRKITGALVGVQPFGGFKLSGTNAKTGALDYLRLFLEMKAVAERF | not failed
